Target: T1, BrpR-His6
T1 chain: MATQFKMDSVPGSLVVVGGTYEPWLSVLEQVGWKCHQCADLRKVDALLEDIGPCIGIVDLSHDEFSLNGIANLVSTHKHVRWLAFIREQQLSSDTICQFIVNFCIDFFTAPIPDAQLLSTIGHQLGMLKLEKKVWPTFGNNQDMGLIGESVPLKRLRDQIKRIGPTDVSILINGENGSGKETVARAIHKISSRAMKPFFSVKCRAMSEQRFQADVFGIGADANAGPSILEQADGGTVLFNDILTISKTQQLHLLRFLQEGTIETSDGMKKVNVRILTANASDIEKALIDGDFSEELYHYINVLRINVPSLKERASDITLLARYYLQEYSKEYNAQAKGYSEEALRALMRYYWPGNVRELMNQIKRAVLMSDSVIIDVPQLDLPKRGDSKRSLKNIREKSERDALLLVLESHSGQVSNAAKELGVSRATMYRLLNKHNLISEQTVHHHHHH
Experiment: EMSA; 50 uM c-di-GMP; 40 mM Tris-Cl pH 7.9, 100 mM KCl, 10 mM MgCl2, 1 mM DTT, 0.1 mM EDTA, 0.1 ug/ul BSA, 0.1 ug poly(dI-dC) in 20 ul, 25 min at 30 C; EMSA DNA 5 nM, footprinting DNA 40 nM
Conditions: protein: recombinant; tags: C-terminal His6; label: 6-FAM on reverse strand; blunt

B1: BRPBwt (dsDNA)
DNA 1: GTTTGCAATGTCTCATTGGTGCGACGAATGCTTTGGCG
DNA 2: CGCCAAAGCATTCGTCGCACCAATGAGACATTGCAAAC
binding result: binds

Source: paper PMC8268162, “A Master Regulator BrpR Coordinates the Expression of Multiple Loci for Robust Biofilm and Rugose Colony Development in Vibrio vulnificus”
